From patent US20210008175A1, “BACTERIOPHAGE LYSIN AND ANTIBIOTIC COMBINATIONS AGAINST GRAM POSITIVE BACTERIA” (priority 2012, published 2021)

Columns and labels:
[1] = test system: Staphylococcus aureus; experiment: MIC, broth microdilution (CLSI M07-A9); format: cell-based; conditions: for MIC90 / MIC90 [uM]: with reducing agent
[2] = test system: Streptococcus pyogenes, Group A; experiment: MIC, broth microdilution (CLSI M07-A9); format: cell-based; conditions: 54 tested
[3] = test system: Staphylococcus epidermidis; experiment: MIC, broth microdilution (CLSI M07-A9); format: cell-based; conditions: 11 tested
[4] = test system: Streptococcus pneumoniae; experiment: MIC, broth microdilution (CLSI M07-A9); format: cell-based; conditions: 26 tested
[5] = test system: Streptococcus mutans; experiment: MIC, broth microdilution (CLSI M07-A9); format: cell-based; conditions: 12 tested
[6] = test system: Listeria monocytogenes; experiment: MIC, broth microdilution (CLSI M07-A9); format: cell-based; conditions: 12 tested
[7] = test system: Enterococcus faecium; experiment: MIC, broth microdilution (CLSI M07-A9); format: cell-based; conditions: 5 tested
[8] = test system: Acinetobacter baumannii; experiment: MIC, broth microdilution (CLSI M07-A9); format: cell-based; conditions: 8 tested
[9] = test system: Escherichia coli; experiment: MIC, broth microdilution (CLSI M07-A9); format: cell-based
[10] = test system: Pseudomonas aeruginosa; experiment: MIC, broth microdilution (CLSI M07-A9); format: cell-based
[11] = test system: Klebsiella spp.; experiment: MIC, sensitivity of human gut bacteria; format: cell-based; conditions: N 8
[12] = test system: Lactobacillus spp.; experiment: MIC, sensitivity of human gut bacteria; format: cell-based; conditions: N 6
[13] = test system: Lactococcus spp.; experiment: MIC, sensitivity of human gut bacteria; format: cell-based; conditions: N 3
[14] = test system: Staphylococcus aureus (MRSA and MSSA strains); experiment: Time kill assay, single agents at 1×MIC (CLSI); format: cell-based
[15] = test system: Staphylococcus aureus (MRSA and MSSA strains); experiment: Synergy time-kill assay (6 hours, combination compared to most active single agent); format: cell-based; conditions: ½ MIC PlySs2 or ¼ MIC vancomycin alone, up to 6 hours
[16] = test system: MRSA S. aureus strains; experiment: Dual agent MIC assay (PlySs2 and daptomycin together, broth microdilution); format: cell-based; conditions: for MIC combo: PlySs2 and daptomycin combined; for MIC alone: single-agent
[17] = test system: MRSA strain MW2 and MSSA strain ATCC 29213; experiment: MIC in the presence of surfactant (Survanta), broth microdilution; format: cell-based, Staphylococcus aureus; conditions: range from 1.25 to 15% surfactant
[18] = test system: S. aureus; experiment: Murine bacteremia model, survival; format: in vivo, BALB/c mice; conditions: for 24 hour survival rate / 72 hour survival rate: high challenge (10^9 CFU MRSA MW2), dosing at 2 hours
[19] = test system: MRSA; experiment: Murine bacteremia model, MRSA CFUs in the blood; format: in vivo, mice; conditions: 5.25 mg/kg PlySs2 at 2-hours post-infection
[20] = test system: MRSA strain ATCC 700699 and MSSA strain ATCC 25923; experiment: microbe, parasite or virus in culture; format: cell-based, Staphylococcus aureus
[21] = test system: MRSA Staphylococcus aureus strain (MW2); experiment: microbe, parasite or virus in culture; format: cell-based
[22] = test system: S. aureus cocci; experiment: Electron microscopy of bacteriolysis; format: cell-based; conditions: after only 15 seconds of treatment
[23] = daptomycin 50 mg/kg once daily, PlySs2 5.25 mg/kg (FIG. 27B)
[24] = vancomycin 110 mg/kg twice daily, PlySs2 5.25 mg/kg (FIG. 27E)

B1: PlySs2: bacteriophage lysin derived from Streptococcus suis, amino acid sequence of FIG. 29 (SEQ ID NO: 1), N-terminal CHAP and C-terminal SH3 domain (protein, listed as Streptococcus suis)
chain: MTTVNEALNNVRAQVGSGVSVGNGECYALASWYERMISPDATVGLGAGVGWVSGAIGDTISAKNIGSSYNWQANGWTVSTSGPFKAGQIVTLGATPGNPYGHVVIVEAVDGDRLTILEQNYGGKRYPVRNYYSAASYRQQVVHYITPPGTVAQSAPNLAGSRSYRETGTMTVTVDALNVRRAPNTSGEIVAVYKRGESFDYDTVIIDVNGYVWVSYIGGSGKRNYVATGATKDGKRFGNAWGTFK
- MIC90 ([1]; DRSA (n = 8)): 4
- MIC90 [uM] ([1]; DRSA (n = 8)): 0.15 µM
- MIC 90% ([1]; Daptomycin-resistant (8)): 4
- MIC90 ([1]; LRSA (n = 5)): 2
- MIC90 [uM] ([1]; LRSA (n = 5)): 0.08 µM
- MIC 90% ([1]; Linezolid-resistant (5)): 2
- MIC90 ([1]; MRSA (n = 45)): 4
- MIC90 [uM] ([1]; MRSA (n = 45)): 0.15 µM
- MIC90 ([1]; MSSA (n-28)): 4
- MIC90 [uM] ([1]; MSSA (n-28)): 0.15 µM
- MIC 50% ([1]; Methicillin resistant (120)): 4 µg/mL
- MIC 90% ([1]; Methicillin resistant (120)): 8 µg/mL
- MIC Range ([1]; Methicillin resistant (120)): 1 to 16 µg/mL
- MIC 50% ([1]; Methicillin susceptible (103)): 4 µg/mL
- MIC 90% ([1]; Methicillin susceptible (103)): 8 µg/mL
- MIC Range ([1]; Methicillin susceptible (103)): 1 to 16 µg/mL
- MIC90 ([1]; VISA (n = 10)): 32
- MIC90 [uM] ([1]; VISA (n = 10)): 1.2 µM
- MIC90 ([1]; VRSA (n = 14)): 2
- MIC90 [uM] ([1]; VRSA (n = 14)): 0.08 µM
- MIC 90% ([1]; Vancomycin-intermediate (31)): 32
- MIC 90% ([1]; Vancomycin-resistant (14)): 4
- MIC ([1]; all strains tested including 103 MSSA and 120 MRSA isolates): 8 µg/mL
- MIC ([1]; strain MW2, without DTT): 32 µg/mL
- MIC 50% [2]: 2 µg/mL
- MIC 90% [2]: 8 µg/mL
- MIC Range [2]: 0.5 to 8 µg/mL
- MIC 50% [3]: 128 µg/mL
- MIC 90% [3]: 512 µg/mL
- MIC Range [3]: 4 to 512 µg/mL
- MIC 50% [4]: 16 µg/mL
- MIC 90% [4]: 64 µg/mL
- MIC Range [4]: 1 to 64 µg/mL
- MIC 50% [5]: 64 µg/mL
- MIC 90% [5]: 256 µg/mL
- MIC Range [5]: 2 to 256 µg/mL
- MIC 50% [6]: 128 µg/mL
- MIC 90% [6]: 512 µg/mL
- MIC Range [6]: 1 to 512 µg/mL
- MIC 50% [7]: >512 µg/mL
- MIC 90% [7]: >512 µg/mL
- MIC 50% [8]: >512 µg/mL
- MIC 90% [8]: >512 µg/mL
- MIC Range [8]: >512 µg/mL
- MIC 50% ([9]; 6 tested): >512 µg/mL
- MIC 90% ([9]; 6 tested): >512 µg/mL
- MIC Range ([9]; 6 tested): >512 µg/mL
- CF-301 MIC ([9]; human gut bacteria, N 10): >512 µg/mL
- MIC 50% ([10]; 5 tested): >512 µg/mL
- MIC 90% ([10]; 5 tested): >512 µg/mL
- MIC Range ([10]; 5 tested): >512 µg/mL
- CF-301 MIC ([10]; human gut bacteria, N 11): >512 µg/mL
- CF-301 MIC [11]: >512 µg/mL
- CF-301 MIC [12]: >512 µg/mL
- CF-301 MIC [13]: >512 µg/mL
- time to reach bactericidal levels (≥3-log10 reduction in CFUs) ([14]; 1×MIC, 20 MSSA and 42 MRSA strains): ≤ 30 minutes
- maximal kill (log reduction) ([14]; all MRSA and MSSA strains tested, generally within the first hour of incubation): ≥ 3 log
- effectiveness alone at sub-MIC doses [15]: ineffective or poorly effective
- Fold reduction ([16]; MRSA strain 223): 4
- MIC combo ([16]; MRSA strain 223): 0.5 µg/mL
- MIC alone ([16]; MRSA strain 223): 2 µg/mL
- Fold reduction ([16]; MRSA strain 241): 2
- MIC combo ([16]; MRSA strain 241): 2 µg/mL
- MIC alone ([16]; MRSA strain 241): 4 µg/mL
- Fold reduction ([16]; MRSA strain 263): 4
- MIC combo ([16]; MRSA strain 263): 2 µg/mL
- MIC alone ([16]; MRSA strain 263): 8 µg/mL
- Fold reduction ([16]; MRSA strain 269 (MW2)): 4
- MIC combo ([16]; MRSA strain 269 (MW2)): 2 µg/mL
- MIC alone ([16]; MRSA strain 269 (MW2)): 8 µg/mL
- Fold reduction ([16]; MRSA strain 270): 4
- MIC combo ([16]; MRSA strain 270): 2 µg/mL
- MIC alone ([16]; MRSA strain 270): 8 µg/mL
- Fold reduction ([16]; MRSA strain 553): 2
- MIC combo ([16]; MRSA strain 553): 1 µg/mL
- MIC alone ([16]; MRSA strain 553): 2 µg/mL
- Fold reduction ([16]; MRSA strain 650): 2
- MIC combo ([16]; MRSA strain 650): 4 µg/mL
- MIC alone ([16]; MRSA strain 650): 8 µg/mL
- Fold reduction ([16]; MRSA strain 827): 2
- MIC combo ([16]; MRSA strain 827): 4 µg/mL
- MIC alone ([16]; MRSA strain 827): 8 µg/mL
- Fold reduction ([16]; MRSA strain 828): 4
- MIC combo ([16]; MRSA strain 828): 2 µg/mL
- MIC alone ([16]; MRSA strain 828): 8 µg/mL
- Fold reduction ([16]; MRSA strain 829): 2
- MIC combo ([16]; MRSA strain 829): 4 µg/mL
- MIC alone ([16]; MRSA strain 829): 8 µg/mL
- Fold reduction ([16]; MRSA strain 830): 2
- MIC combo ([16]; MRSA strain 830): 2 µg/mL
- MIC alone ([16]; MRSA strain 830): 4 µg/mL
- Fold reduction ([16]; MRSA strain 833): 4
- MIC combo ([16]; MRSA strain 833): 2 µg/mL
- MIC alone ([16]; MRSA strain 833): 8 µg/mL
- fold reduction in the effective MIC ([16]; PlySs2 and daptomycin together, a dozen MRSA strains): 2-4 fold
- inhibition of MIC by surfactant [17]: 8 fold
- protection ([18]; 5 mg/kg dose): significant protection
- dose giving survival enhancement over mock-injected control ([18]; dose-response, as little as): 0.25 mg/kg
- 24 hour survival rate [18, 23]: 56%
- 72 hour survival rate [18, 23]: 18%
- 24 hour survival rate [18, 24]: 60%
- 72 hour survival rate [18, 24]: 3%
- survival at 72 hours ([18]; low challenge model (up to 7×10^6 CFU MRSA MW2), single dose at 4 hours, PlySs2 1.25 mg/kg, daptomycin 2 mg/kg): 13%
- decrease in CFUs in blood ([19]; in 15 minutes): 0.5 log10
- decrease in CFUs in blood ([19]; within 60 minutes of treatment): 2 log
- MIC in daptomycin resistant clones ([20]; over 21 days of in vitro growth): 2 to 4 µg/mL
- MIC before daptomycin resistance selection ([20]; start of serial passage): 8 µg/mL
- suppression of daptomycin resistance relative to daptomycin alone ([21]; sub-MIC PlySs2 (4 ug/ml)): 8 to 16 fold
- suppression of vancomycin resistance relative to vancomycin alone ([21]; sub-MIC PlySs2 (8 ug/ml)): 4 to 8 fold
- bacteriolysis by electron microscopy [22]: extensive bacteriolysis
